Measurements taken from US20150329595A1 (NORTH CAROLINA STATE UNIVERSITY, published 2015).

B1: AD:TAL11-352 prey (activation domain fused to full-length TGMV AL1) (other, Tomato golden mosaic virus, UniProt P03567 1-352, looked up, not shown: large carriers)
chain: MPSHPKRFQINAKNYFLTYPQCSLSKEESLSQLQALNTPINKKFIKICRELHEDGQPHLHVLIQFEGKYCCQNQRFFDLVSPTRSAHFHPNIQRAKSSSDVKTYIDKDGDTLVWGEFQVDGRSARGGCQTSNDAAAEALNASSKEEALQIIREKIPEKYLFQFHNLNSNLDRIFDKTPEPWLPPFHVSSFTNVPDEMRQWAENYFGKSSAARPERPISIIIEGDSRTGKTMWARSLGPHNYLSGHLDLNSRVYSNKVEYNVIDDVTPQYLKLKHWKELIGAQRDWQTNCKYGKPVQIKGGIPSIVLCNPGEGASYKVFLDKEENTPLKNWTFHNAKFVFLNSPLYQSSTQSS
notes: positive prey control; also called pNSB970

What was measured:
[1] = target: B1; assay: yeast two-hybrid growth
[2] = target: T1, GUS bait (LexA DBD:beta-glucuronidase fusion) (E. coli, UniProt P0A7C2 1-202; P05804 1-603); assay: yeast two-hybrid growth
T1 construct: negative control bait; also called pNSB1120

Binder | binding result [1] | binding result [2]
TAL11-130 bait (LexA DBD fused to the first 130 amino acids of TGMV AL1) (other, E. coli;Tomato golden mosaic virus, UniProt P0A7C2 1-202, looked up, yeast two-hybrid bait; also called NT; Rep1-130) MKALTARQQEVFDLIRDHISQTGMPPTRAEIAQRLGFRSPNAAEEHLKALARKGVIEIVSGASRGIRLLQEEEEGLPLVGRVAAGEPLLAQQHIEGHYQVDPSLFKPNADFLLRVSGMSMKDIGIMDGDLLAVHKTQDVRNGQVVVARIDDEVTVKRLKKQGNKVELLPENSEFKPIVVDLRQQSFTIEGLAVGVIRNGDWLMPSHPKRFQINAKNYFLTYPQCSLSKEESLSQLQALNTPINKKFIKICRELHEDGQPHLHVLIQFEGKYCCQNQRFFDLVSPTRSAHFHPNIQRAKSSSDVKTYIDKDGDTLVWGEFQVDGRSARGGCQT | no binding | –
B1 | – | no binding
